Assay results: paper PMC9022993

Biological target: human parkin, full-length, affinity tag cleaved (human) (UniProt O60260)
Assay: ITC; parkin (20 µM in 162 µl) in the cell titrated with the chimera (mG2-Ub 100 µM, CISD1-Ub 212 µM, mG2-pUb 84 µM, CISD1-pUb 106 µM); 18°C or 25°C; 25 mM HEPES or 20 mM Tris, 100 mM NaCl, 250 µM TCEP, pH 7.5 or 8.0; duplicate; single-site model

human parkin, full-length, affinity tag cleaved (human), sequence (O60260 whole entry): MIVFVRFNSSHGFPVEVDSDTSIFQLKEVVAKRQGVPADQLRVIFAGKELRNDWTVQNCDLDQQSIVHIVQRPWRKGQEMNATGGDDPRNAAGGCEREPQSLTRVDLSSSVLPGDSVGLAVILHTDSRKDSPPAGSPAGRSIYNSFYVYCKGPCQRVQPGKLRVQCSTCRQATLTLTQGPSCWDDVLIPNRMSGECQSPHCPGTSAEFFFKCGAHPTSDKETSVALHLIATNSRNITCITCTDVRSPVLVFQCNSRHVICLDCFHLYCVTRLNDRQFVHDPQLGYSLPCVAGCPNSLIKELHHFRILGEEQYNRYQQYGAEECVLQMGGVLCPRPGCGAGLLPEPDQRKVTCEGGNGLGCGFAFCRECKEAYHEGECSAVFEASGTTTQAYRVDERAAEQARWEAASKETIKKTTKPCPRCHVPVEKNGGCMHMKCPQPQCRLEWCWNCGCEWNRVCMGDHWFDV

Row | Substance | Kd [nM] | dH [kcal/mol]
1 | CISD1-pUb (CISD1-Ub phosphorylated by PINK1 at S65 of its Ub) (from UniProt Q9NZ45 32-108; P0CG63 1-76) | 450 | 7.17
2 | mG2-pUb (mG2-Ub phosphorylated by PINK1 at S65 of its Ub) (from UniProt Q8IXI2 402-582; P0CG63 1-76) | 920 | 9.8
